Experimental data published in PMC2963697.

How the values were obtained:
[1] = substrate: C=CC=C(O)C(=O)O; assay: UV spectrophotometric tautomerase assay, steady state; type: biochemical, Helicobacter pylori; conditions: reaction 3 -> 6, 20 mM sodium phosphate, pH 7.3, 23 °C
[2] = substrate: C=CC=C(O)C(=O)O; assay: as above; type: biochemical, Archaeoglobus fulgidus; conditions: reaction 3 -> 6, 20 mM sodium phosphate, pH 7.3, 23 °C

B1: HpDmpI (Helicobacter pylori 26695) (protein)
chain: PFINIKLVPENGGPTNEQKQQLIEGVSDLMVKVLNKNKASIVVIIDEVDSNNYGLGGESVHHLRQKN
Km [1]: 190 ± 40 µM
kcat [1]: 2.5 ± 0.3 s⁻¹
kcat/Km [1]: 13000 M⁻¹ s⁻¹

B2: AfDmpI (Archaeoglobus fulgidus DSM 4304) (protein)
chain: PVLIVYGPKLDVGKKREFVERLTSVAAEIYGMDRSAITILIHEPPAENVGVGGKLIADRERE
Km [2]: 90 ± 30 µM
kcat [2]: 0.1 ± 0.02 s⁻¹
kcat/Km [2]: 1100 M⁻¹ s⁻¹
